Columns and labels:
[1] = biological target: incompletely carboxylated recombinant human prothrombin, P00734
[2] = biological target: fully carboxylated recombinant human prothrombin, P00734

B1: recombinant ecarin (activated, in CHO-S culture supernatant) (protein)
chain: VPPHERKFEKKFIELVVVVDHSMVTKYNNDSTAIRTWIYEMLNTVNEIYLPFNIRVALVGLEFWCNGDLINVTSTADDTLHSFGEWRASDLLNRKRHDHAQLLTNVTLDHSTLGITFVYGMCKSDRSVELILDYSNITFNMAYIIAHEMGHSLGMLHDTKFCTCGAKPCIMFGKESIPPPKEFSSCSYDQYNKYLLKYNPKCILDPPLRKDIASPAVCGNEIWEEGEECDCGSPADCRNPCCDAATCKLKPGAECGNGECCDKCKIRKAGTECRPARDDCDVAEHCTGQSAECPRNEFQRNGQPCLNNSGYCYNGDCPIMLNQCIALFSPSATVAQDSCFQRNLQGSYYGYCTKEIGYYGKRFPCAPQDVKCGRLYCLDNSFKKNMRCKNDYSYADENKGIVEPGTKCEDGKVCINRKCVDVNTAY
[1]
  activation of prothrombin: the recombinant ecarin is able to efficiently activate both the fully carboxylated and the incompletely carboxylated prothrombins
[2]
  activation of prothrombin: the recombinant ecarin is able to efficiently activate both the fully carboxylated and the incompletely carboxylated prothrombins

Source: patent US20120258090
